Tests used:
Assay type in all cases: in vivo, human
[1] = test system: Breast Cancer; assay: Clinical monotherapy of rhTNFm1, breast cancer; conditions: 10 patients
Description: (§1) Patients were selected based on the following criteria: i) measurable, objective tumor; ii) Karnofsky performance status (KPS)≧60; iii) age 18-75; iv) major organs in basically normal condition; v) no chemotherapy, radiotherapy and biologic therapy within the last month; vi) predicted ≧3 mon. survival; and vii) with patient's informed consent signed.
(§2) Patients were excluded based on the following criteria: i) with history of allergic reactions to TNF or its derivatives; ii) pregnant or lactating women; iii) major organs with obvious damages or malfunction; iv) in ≧38° C. fever; v) with obvious tendency to haemorrhage; vi) with history of hypo- or hypertension; vii) with serious albuminemia; and viii) with strong tendency of disobedience or resistance.
(§3) Patients were removed from the evaluation if any of the following conditions apply: i) treatment was not completed according to the protocol; ii) incomplete records; and iii) treatment using cancer therapies not in the protocol. However, patients who withdrew due to adverse reactions to the therapy were still included in the evaluation.
(§4) The results of the treatment of tumors were evaluated based the following criteria: i) complete response (CR)—complete disappearance of observable pathological changes for at least 4 weeks; ii) partial response (PR)—reduction by ≧50% in tumor size measured by the product of the maximum circular and vertical dimensions for at least 4 weeks; iii) minimum response (MR)—reduction by >25% but <50% in tumor size measured by the product of the maximum circular and vertical dimensions for at least 4 weeks; iv) stabilized (SD)—reduction by ≦25% but without increase by >25% in tumor size measured by the product of the maximum circular and vertical dimensions for at least 4 weeks; and progression (PD): increase by >25% in tumor size in one or more sites.
(§5) Patients rested on day 1 and 2. The treatment cycle was 3-4 weeks.

[2] = test system: non-Hodgkin's lymphoma; assay: Clinical monotherapy of rhTNFm1, non-Hodgkin's lymphoma; conditions: for Response Rate (%) CR / Response Rate (%) CR + PR / Response Rate (%) PR / Efficacy CR / Efficacy MR / Efficacy PD / Efficacy PR / Efficacy SD: Non-Hodgkin's, monotherapy; for Efficacy CR / Efficacy MR / Efficacy PD / Efficacy PR / Efficacy SD: patient count
Description: as §1, §2, §3, §4, §5
(§6) Table II summaries results of the treatment of patients with malignant lymphoma, classified according to Hodgkin's disease and non-Hodgkin's lymphoma. Within each of category of lymphoma, patients were further classified into two groups: chemo-naïve and chemo-refractory. The chemo-naïve patients were patients who had never been treated with any anti-cancer agent previously whereas chemo-refractory patients were ones who failed treatment with one or more anti-cancer agent.

[3] = test system: Colon Cancer; assay: Clinical monotherapy of rhTNFm1, colon cancer; conditions: 7 patients
Description: as §1, §2, §3, §4, §5

[4] = test system: Liver Cancer; assay: Clinical monotherapy of rhTNFm1, liver cancer; conditions: 12 patients
Description: as §1, §2, §3, §4, §5

[5] = test system: Hodgkin's disease; assay: Clinical monotherapy of rhTNFm1, Hodgkin's disease; conditions: for Efficacy CR / Efficacy MR / Efficacy PD / Efficacy PR / Efficacy SD: patient count
Description: as §1, §2, §3, §4, §5, §6

[6] = test system: Malignant melanoma; assay: Clinical monotherapy of rhTNFm1, malignant melanoma; conditions: 18 patients
Description: as §1, §2, §3, §4, §5

[7] = Chemo-naïve Grade I & II, 4 patients
[8] = Chemo-naïve Grade III & IV, 5 patients
[9] = Chemo-naïve Grade I & II, 0 patients
[10] = Chemo-naïve Grade III & IV, 0 patients

B1: rhTNFm1: Recombinant human TNF-α mutant 1 expressed in E. coli; SEQ ID NO: 3 with N-terminal methionine (FIG. 1, 2) (protein)
chain: MRKRKPVAHVVANPQAEGQLQWLNRRANALLANGVELRDNQLVVPSEGLYLIYSQVLFKGQGCPSTHVLLTHTISRIAVSYQTKVNLLSAIKSPCQRETPEGAEAKPWYEPIYLGGVFQLEKGDRLSAEINRPDYLDFAESGQVYFGIIAQ
modifications: rhTNFm1 with Met
- Response Rate (%) CR [1]: 0.00%
- Response Rate (%) CR + PR [1]: 0.00%
- Response Rate (%) PR [1]: 0.00%
- Efficacy CR ([1]; patient count): 0
- Efficacy MR ([1]; patient count): 0
- Efficacy PD ([1]; patient count): 4
- Efficacy PR ([1]; patient count): 0
- Efficacy SD ([1]; patient count): 6
- Response Rate (%) CR [2, 7]: 0%
- Response Rate (%) CR + PR [2, 7]: 75%
- Response Rate (%) PR [2, 7]: 75%
- Response Rate (%) CR [2, 8]: 0%
- Response Rate (%) CR + PR [2, 8]: 60%
- Response Rate (%) PR [2, 8]: 60%
- Response Rate (%) CR ([2]; Chemo-naïve Total, 9 patients): 0%
- Response Rate (%) CR + PR ([2]; Chemo-naïve Total, 9 patients): 66.67%
- Response Rate (%) PR ([2]; Chemo-naïve Total, 9 patients): 66.67%
- Response Rate (%) CR ([2]; Chemo-refractory, 56 patients): 3.57%
- Response Rate (%) CR + PR ([2]; Chemo-refractory, 56 patients): 25%
- Response Rate (%) PR ([2]; Chemo-refractory, 56 patients): 21.43%
- quality of life score after the treatment ([2]; one NHL patient, before 50): 60
- KPS after the treatment ([2]; one NHL patient, before 90): 90
- Efficacy CR [2, 7]: 0
- Efficacy MR [2, 7]: 1
- Efficacy PD [2, 7]: 0
- Efficacy PR [2, 7]: 3
- Efficacy SD [2, 7]: 0
- Efficacy CR [2, 8]: 0
- Efficacy MR [2, 8]: 0
- Efficacy PD [2, 8]: 0
- Efficacy PR [2, 8]: 3
- Efficacy SD [2, 8]: 2
- Efficacy CR ([2]; Chemo-naïve Total, 9 patients): 0
- Efficacy MR ([2]; Chemo-naïve Total, 9 patients): 1
- Efficacy PD ([2]; Chemo-naïve Total, 9 patients): 0
- Efficacy PR ([2]; Chemo-naïve Total, 9 patients): 6
- Efficacy SD ([2]; Chemo-naïve Total, 9 patients): 2
- Efficacy MR ([2]; Chemo-refractory, 56 patients): 7
- Efficacy PD ([2]; Chemo-refractory, 56 patients): 10
- Efficacy PR ([2]; Chemo-refractory, 56 patients): 12
- Efficacy SD ([2]; Chemo-refractory, 56 patients): 25
- Response Rate (%) CR [3]: 0.00%
- Response Rate (%) CR + PR [3]: 0.00%
- Response Rate (%) PR [3]: 0.00%
- Efficacy CR ([3]; patient count): 0
- Efficacy MR ([3]; patient count): 0
- Efficacy PD ([3]; patient count): 4
- Efficacy PR ([3]; patient count): 0
- Efficacy SD ([3]; patient count): 3
- Response Rate (%) CR [4]: 0.00%
- Response Rate (%) CR + PR [4]: 0.00%
- Response Rate (%) PR [4]: 0.00%
- Efficacy CR ([4]; patient count): 0
- Efficacy MR ([4]; patient count): 0
- Efficacy PD ([4]; patient count): 2
- Efficacy PR ([4]; patient count): 0
- Efficacy SD ([4]; patient count): 10
- Response Rate (%) CR [5, 9]: 0%
- Response Rate (%) CR + PR [5, 9]: 0%
- Response Rate (%) PR [5, 9]: 0%
- Response Rate (%) CR [5, 10]: 0%
- Response Rate (%) CR + PR [5, 10]: 0%
- Response Rate (%) PR [5, 10]: 0%
- Response Rate (%) CR ([5]; Chemo-naïve Total, 0 patients): 0%
- Response Rate (%) CR + PR ([5]; Chemo-naïve Total, 0 patients): 0%
- Response Rate (%) PR ([5]; Chemo-naïve Total, 0 patients): 0%
- Response Rate (%) CR ([5]; Chemo-refractory, 6 patients): 0%
- Response Rate (%) CR + PR ([5]; Chemo-refractory, 6 patients): 0%
- Response Rate (%) PR ([5]; Chemo-refractory, 6 patients): 0%
- Efficacy CR [5, 9]: 0
- Efficacy MR [5, 9]: 0
- Efficacy PD [5, 9]: 0
- Efficacy PR [5, 9]: 0
- Efficacy SD [5, 9]: 0
- Efficacy CR [5, 10]: 0
- Efficacy MR [5, 10]: 0
- Efficacy PD [5, 10]: 0
- Efficacy PR [5, 10]: 0
- Efficacy SD [5, 10]: 0
- Efficacy CR ([5]; Chemo-naïve Total, 0 patients): 0
- Efficacy MR ([5]; Chemo-naïve Total, 0 patients): 0
- Efficacy PD ([5]; Chemo-naïve Total, 0 patients): 0
- Efficacy PR ([5]; Chemo-naïve Total, 0 patients): 0
- Efficacy SD ([5]; Chemo-naïve Total, 0 patients): 0
- Efficacy CR ([5]; Chemo-refractory, 6 patients): 0
- Efficacy MR ([5]; Chemo-refractory, 6 patients): 0
- Efficacy PD ([5]; Chemo-refractory, 6 patients): 1
- Efficacy PR ([5]; Chemo-refractory, 6 patients): 0
- Efficacy SD ([5]; Chemo-refractory, 6 patients): 5
- Response Rate (%) CR [6]: 0.00%
- Response Rate (%) CR + PR [6]: 11.11%
- Response Rate (%) PR [6]: 11.11%
- Efficacy CR ([6]; patient count): 0
- Efficacy MR ([6]; patient count): 3
- Efficacy PD ([6]; patient count): 3
- Efficacy PR ([6]; patient count): 2
- Efficacy SD ([6]; patient count): 10
